The text below walks through data of publication PMC10198640.

This assay deals with T1, recombinant soluble form of the extracellular domain of DC-SIGN, Q9NNX6.
T1 chain: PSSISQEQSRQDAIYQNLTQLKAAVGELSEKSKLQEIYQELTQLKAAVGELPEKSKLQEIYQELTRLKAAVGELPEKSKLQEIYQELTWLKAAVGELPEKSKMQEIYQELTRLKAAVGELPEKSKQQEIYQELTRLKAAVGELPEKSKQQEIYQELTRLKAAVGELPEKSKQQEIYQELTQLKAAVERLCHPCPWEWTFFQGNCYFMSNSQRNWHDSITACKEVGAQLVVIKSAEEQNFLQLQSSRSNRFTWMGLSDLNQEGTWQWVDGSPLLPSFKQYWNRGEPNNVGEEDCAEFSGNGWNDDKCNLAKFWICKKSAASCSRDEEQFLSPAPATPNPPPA
The assay is described as follows: native gel or EMSA; denaturing and nondenaturing polyacrylamide gel electrophoresis of the refolded, purified protein (fig. S2, A and B). The following applies: remark: other sources report otherwise.

B1: recombinant soluble form of the extracellular domain of DC-SIGN, Q9NNX6 64-404 (domain or fragment)
chain: PSSISQEQSRQDAIYQNLTQLKAAVGELSEKSKLQEIYQELTQLKAAVGELPEKSKLQEIYQELTRLKAAVGELPEKSKLQEIYQELTWLKAAVGELPEKSKMQEIYQELTRLKAAVGELPEKSKQQEIYQELTRLKAAVGELPEKSKQQEIYQELTRLKAAVGELPEKSKQQEIYQELTQLKAAVERLCHPCPWEWTFFQGNCYFMSNSQRNWHDSITACKEVGAQLVVIKSAEEQNFLQLQSSRSNRFTWMGLSDLNQEGTWQWVDGSPLLPSFKQYWNRGEPNNVGEEDCAEFSGNGWNDDKCNLAKFWICKKSAASCSRDEEQFLSPAPATPNPPPA
As to B1, the stoichiometry N (commonly the number of molecules, sites or subunits per partner or assembly) is 4.
